Data published in US12247072 (ASHER BIOTHERAPEUTICS, dated 2025).

T1: mouse CD8b (mouse, UniProt P10300 22-175, limits assumed)
T1 sequence (looked up): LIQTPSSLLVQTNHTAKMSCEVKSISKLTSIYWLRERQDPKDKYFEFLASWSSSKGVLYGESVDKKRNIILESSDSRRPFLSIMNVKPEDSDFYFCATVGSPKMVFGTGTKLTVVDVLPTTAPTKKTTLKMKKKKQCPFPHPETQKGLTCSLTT


Legend:
[1] = molecular target: T2, Human IL-21R (Biolegend, Catalog No. 773104) (human, UniProt Q9HBE5 20-232, limits assumed); experiment: SPR, 37 C;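 as to Kd: fc fusion proteins captured on an anti-human IgG Fc Biacore surface, 10 min dissociation, double-referenced data fitted to a 1:1 Langmuir model with mass transport, triplicate runs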;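 as to koff: fc fusion proteins captured on an anti-human IgG Fc Biacore surface, 10 min dissociation, double-referenced data fitted to a 1:1 Langmuir model with mass transport, triplicate runs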;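 as to kon: fc fusion proteins captured on an anti-human IgG Fc Biacore surface, 10 min dissociation, double-referenced data fitted to a 1:1 Langmuir model with mass transport, triplicate runs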
T2 construct: Bought; also called human IL-21 receptor

[2] = molecular target: T2, Human IL-21R (Biolegend, Catalog No. …); experiment: SPR, 37 C; remark: listed apart in the source
[3] = molecular target: Recombinant human IL-21R, extracellular domain fused to 8x Histidine tag (generated in house) (human, UniProt Q9HBE5 20-232); experiment: SPR, 25 C
[4] = molecular target: T1, mouse CD8b; experiment: not described
[5] = molecular target: T3, mouse CD8 (mouse, UniProt P01731 28-247; P10300 22-213); experiment: not described
T3 construct: copies: 1 + 1
T3 sequence (P01731 28-247 limits assumed, one chain of several): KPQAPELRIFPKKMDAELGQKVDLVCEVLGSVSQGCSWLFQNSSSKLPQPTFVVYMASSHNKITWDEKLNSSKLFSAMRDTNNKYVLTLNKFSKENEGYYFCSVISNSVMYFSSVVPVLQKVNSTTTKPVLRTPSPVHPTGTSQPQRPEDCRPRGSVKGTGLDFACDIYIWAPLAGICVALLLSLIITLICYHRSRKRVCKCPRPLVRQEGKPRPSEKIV

T2 sequence (Q9HBE5 20-232 limits assumed): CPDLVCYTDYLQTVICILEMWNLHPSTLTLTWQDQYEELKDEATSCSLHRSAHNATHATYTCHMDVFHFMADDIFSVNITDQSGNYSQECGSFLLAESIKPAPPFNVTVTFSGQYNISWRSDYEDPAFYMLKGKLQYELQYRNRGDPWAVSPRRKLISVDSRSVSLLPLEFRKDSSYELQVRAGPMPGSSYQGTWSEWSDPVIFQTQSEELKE
Recombinant human IL-21R, extracellular domain fused to 8x Histidine tag (generated in house), sequence (Q9HBE5 other isoform, or with tags, fused parts or gaps limits assumed): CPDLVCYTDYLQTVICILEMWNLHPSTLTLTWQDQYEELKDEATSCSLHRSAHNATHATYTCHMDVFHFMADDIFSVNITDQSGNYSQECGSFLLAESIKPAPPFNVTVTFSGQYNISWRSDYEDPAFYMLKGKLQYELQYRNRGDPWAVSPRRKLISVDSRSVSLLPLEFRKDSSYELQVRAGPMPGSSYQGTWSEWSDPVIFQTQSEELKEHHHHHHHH

| Binder | fold difference of IL-21R affinity against wild type IL-21 [1] [fold] | Kd [2] [nM] | koff [2] [s⁻¹] | kon [2] [M⁻¹ s⁻¹] | Kd [3] [nM] | binding result [4] | binding result [5] |
| --- | --- | --- | --- | --- | --- | --- | --- |
| xhCD8-hIL21 v2 (other, Human IgG1/kappa, knob-into-hole, L234A/L235A/G237A; also called xhCD8-Fc-hIL21 v2; exemplary IL-21 polypeptide 2) VH: QVHLQQSGPELVKPGASVKMSCKTSGYTFTKYTMHWVKQGHEESLEWIGHFNPNNDETKYNQKFTGKATLTVDKSSTTAYMELRSLTSDDSALYYCARDGLGLRLFADWGQGTLITVSA VL: DIQMTQSPASLSASVGETVTITCGASENIYGALNWYQRKQGKSPQLLIFGATNLADGVSSRFSGSGSDRQYSLKISSLHPDDVATYYCQNILDTPWTFGGGTKLEIK not shown | ≤ 2 | 0.122 | 0.0011 | 8.9e+06 | – | – | – |
| xhCD8-hIL21 v1 (other, Human IgG1/kappa, knob-into-hole, L234A/L235A/G237A; also called exemplary IL-21 polypeptide 1) VH: QVHLQQSGPELVKPGASVKMSCKTSGYTFTKYTMHWVKQGHEESLEWIGHFNPNNDETKYNQKFTGKATLTVDKSSTTAYMELRSLTSDDSALYYCARDGLGLRLFADWGQGTLITVSA VL: DIQMTQSPASLSASVGETVTITCGASENIYGALNWYQRKQGKSPQLLIFGATNLADGVSSRFSGSGSDRQYSLKISSLHPDDVATYYCQNILDTPWTFGGGTKLEIK not shown | ≤ 2 | 0.117 | 0.00097 | 8.3e+06 | – | – | – |
| xhCD8-hIL21 v6 (other, Human IgG1/kappa, knob-into-hole, L234A/L235A/G237A; also called exemplary IL-21 polypeptide 6) VH: QVHLQQSGPELVKPGASVKMSCKTSGYTFTKYTMHWVKQGHEESLEWIGHFNPNNDETKYNQKFTGKATLTVDKSSTTAYMELRSLTSDDSALYYCARDGLGLRLFADWGQGTLITVSA VL: DIQMTQSPASLSASVGETVTITCGASENIYGALNWYQRKQGKSPQLLIFGATNLADGVSSRFSGSGSDRQYSLKISSLHPDDVATYYCQNILDTPWTFGGGTKLEIK not shown | ~3 | 0.478 | 0.0025 | 5.2e+06 | – | – | – |
| xhCD8.1-hIL21 v29 (other, Human IgG1/kappa, knob-into-hole, L234A/L235A/G237A) VH: QVQLVQSGAEVKKPGSSVKVSCKASGGTFSSYAISWVRQAPGQGLEWMGGIIPGYATANYAQKFQGRVTITADESTSTAYMELSSLRSEDTAVYYCARDAAGIRLFADWGQGTLVTVSS VL: DIQMTQSPSSLSASVGDRVTITCRASQSIYGALNWYQQKPGKAPKLLIYGASNLQSGVPSRFSGSGSGTDFTLTISSLQPEDFATYYCQSTYTAPWTFGGGTKVEIK QGQDRHMIRMRQLIDIVDQLKNYVNDLVPEFLPAPEDVETNCEWSAFSCFQKAQLKSANTGNNERIINVSIKKLKRKPPGGGGEGGGGGEGGCPSCDSYEKKPPKEFLERFKSLLQKMIHQHLSSRTHGSEDS | ≤ 2 | 0.094 | 0.00119 | 1.27e+07 | – | – | – |
| xhCD8.1-hIL21 v27 (other, Human IgG1/kappa, knob-into-hole, L234A/L235A/G237A) VH: QVQLVQSGAEVKKPGSSVKVSCKASGGTFSSYAISWVRQAPGQGLEWMGGIIPGYATANYAQKFQGRVTITADESTSTAYMELSSLRSEDTAVYYCARDAAGIRLFADWGQGTLVTVSS VL: DIQMTQSPSSLSASVGDRVTITCRASQSIYGALNWYQQKPGKAPKLLIYGASNLQSGVPSRFSGSGSGTDFTLTISSLQPEDFATYYCQSTYTAPWTFGGGTKVEIK not shown | ≤ 2 | 0.106 | 0.00139 | 1.31e+07 | – | – | – |
| xhCD8.1-hIL21 v28 (other, Human IgG1/kappa, knob-into-hole, L234A/L235A/G237A) VH: QVQLVQSGAEVKKPGSSVKVSCKASGGTFSSYAISWVRQAPGQGLEWMGGIIPGYATANYAQKFQGRVTITADESTSTAYMELSSLRSEDTAVYYCARDAAGIRLFADWGQGTLVTVSS VL: DIQMTQSPSSLSASVGDRVTITCRASQSIYGALNWYQQKPGKAPKLLIYGASNLQSGVPSRFSGSGSGTDFTLTISSLQPEDFATYYCQSTYTAPWTFGGGTKVEIK not shown | ≤ 2 | 0.106 | 0.00139 | 1.31e+07 | – | – | – |
| xhCD8.1-hIL21 v30 (other, Human IgG1/kappa, knob-into-hole, L234A/L235A/G237A) VH: QVQLVQSGAEVKKPGSSVKVSCKASGGTFSSYAISWVRQAPGQGLEWMGGIIPGYATANYAQKFQGRVTITADESTSTAYMELSSLRSEDTAVYYCARDAAGIRLFADWGQGTLVTVSS VL: DIQMTQSPSSLSASVGDRVTITCRASQSIYGALNWYQQKPGKAPKLLIYGASNLQSGVPSRFSGSGSGTDFTLTISSLQPEDFATYYCQSTYTAPWTFGGGTKVEIK not shown | ≤ 2 | 0.093 | 0.00107 | 1.16e+07 | – | – | – |
| xhCD8.1-hIL21 v31 (other, Human IgG1/kappa, knob-into-hole, L234A/L235A/G237A) VH: QVQLVQSGAEVKKPGSSVKVSCKASGGTFSSYAISWVRQAPGQGLEWMGGIIPGYATANYAQKFQGRVTITADESTSTAYMELSSLRSEDTAVYYCARDAAGIRLFADWGQGTLVTVSS VL: DIQMTQSPSSLSASVGDRVTITCRASQSIYGALNWYQQKPGKAPKLLIYGASNLQSGVPSRFSGSGSGTDFTLTISSLQPEDFATYYCQSTYTAPWTFGGGTKVEIK not shown | ≤ 2 | 0.094 | 0.00113 | 1.2e+07 | – | – | – |
| hIL21 v31.23, non-fusion, 8His-tagged (ligand) QGQDRHMIRMRQLIDIVDQLKNYVNDLVPEFLPAPEDVETNCEWSAFSCFQKAQLKSANTGNNERIINVSIKKLKQKPPGGEGGGGGGGEGGCPSCDSYEKKPPKEFLERFKSLLQKMIHQHLSSRTHGSEDSGGASHHHHHHHH | – | – | – | – | 6060 | – | – |
| hIL21 v31.51, non-fusion, 8His-tagged (ligand) QGQDRHMIGMRQLIDIVDQLKNYVNDLVPEFLPAPEDVETNCEWSAFSCFQKAQLKSANTGNNERIINVSIKKLKRKPPGGEGGGGGGGEGGCPSCDSYEKKPPKEFLERFKSLLQKMIHQHLSSRTHGSEDSGGASHHHHHHHH | – | – | – | – | 7730 | – | – |
| xhCD8.1 (antibody, V domains shown, Anti-human CD8 antibody; human IgG1/kappa; also called xhCD8v12; xCtrl (in mouse studies)) VH: QVQLVQSGAEVKKPGSSVKVSCKASGGTFSSYAISWVRQAPGQGLEWMGGIIPGYATANYAQKFQGRVTITADESTSTAYMELSSLRSEDTAVYYCARDAAGIRLFADWGQGTLVTVSS VL: DIQMTQSPSSLSASVGDRVTITCRASQSIYGALNWYQQKPGKAPKLLIYGASNLQSGVPSRFSGSGSGTDFTLTISSLQPEDFATYYCQSTYTAPWTFGGGTKVEIK | – | – | – | – | – | no binding | no binding |
| xhCD8v11 (antibody, V domains shown, Anti-human CD8 antibody; human IgG1/kappa) VH: EVQLVESGGGLVQPGGSLRLSCAASGFTFSSYAMSWVRQAPGKGLEWVSDITYAGGSTAYADSVKGRFTISRDNAKNSLYLQMNSLRAEDTAVYYCARSNAYAWDDALDIWGQGTLVTVSS VL: not shown | – | – | – | – | – | – | no binding |
